Reference: patent US20240270821A1, “GIP/GLP1/GCG TRI-RECEPTOR AGONISTS AND USES THEREOF” (priority 2023, published 2024)
Positions count from the first letter of the chain named.

T1: human GIP receptor (human) (UniProt P48546)
T1 sequence (looked up): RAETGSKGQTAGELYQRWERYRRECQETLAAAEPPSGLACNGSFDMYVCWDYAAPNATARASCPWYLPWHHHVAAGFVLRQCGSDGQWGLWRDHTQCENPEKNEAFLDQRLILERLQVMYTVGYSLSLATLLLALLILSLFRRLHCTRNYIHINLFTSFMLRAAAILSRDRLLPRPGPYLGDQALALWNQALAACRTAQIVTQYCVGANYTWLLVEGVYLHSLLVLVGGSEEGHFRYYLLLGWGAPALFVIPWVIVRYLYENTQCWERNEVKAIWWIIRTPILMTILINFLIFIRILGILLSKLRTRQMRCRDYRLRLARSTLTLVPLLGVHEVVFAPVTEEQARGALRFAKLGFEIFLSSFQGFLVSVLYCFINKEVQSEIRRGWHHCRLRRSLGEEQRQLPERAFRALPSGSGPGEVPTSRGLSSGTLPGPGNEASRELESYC

B1: Example 1168 (peptide)
chain: YXQGTXTSDXXIXLDXKAQXEFIEXLIEGGPSSGAPPPSGGGE
modifications: non-natural residues, AEEA-γGlu-C18 diacid lysine acylation, C-terminal amide; synthetic construct; SITE 2: note = 2-Aminoisobutyric Acid; SITE 6: note = alpha-methyl-L-phenylalanine; SITE 10: note = 3-(4-Pyridyl)-L-alanine; SITE 11: note = alpha-methyl-L-serine; SITE 13: note = alpha-methyl-leucine; SITE 16: note = L-ornithine; SITE 17: note = Lysine is chemically modified th
B2: Example 1181 (peptide)
chain: B1 chain with A35E
modifications: non-natural residues, AEEA-(γGlu)2-C18 diacid acyl on K, C-terminal amide; synthetic construct; SITE 2: note = 2-Aminoisobutyric Acid; SITE 6: note = alpha-methyl-2-fluoro-L-phenylalanine; SITE 10: note = 3-(4-Pyridyl)-L-alanine; SITE 11: note = alpha-methyl-L-serine; SITE 13: note = alpha-methyl-leucine; SITE 16: note = L-ornithine; SITE 17: note = Lysine is chemically mo
B3: Example 1185 (peptide)
chain: B1 chain with X6F, I12Q, E21Q, E28A, G29X
modifications: not fully specified; non-natural residues; Lys acylated with γGlu-C18 diacid; C-terminal amide; synthetic construct; SITE 2: note = 2-Aminoisobutyric Acid; SITE 10: note = 3-(4-Pyridyl)-L-alanine; SITE 11: note = alpha-methyl-L-serine; SITE 13: note = alpha-methyl-leucine; SITE 16: note = L-ornithine; SITE 17: note = Lysine is chemically modified through conjugation of the epsilon-amino group
B4: Example 1180 (peptide)
chain: B1 chain
modifications: Non-natural residues; K acylated AEEA-(γGlu)2-C18 diacid; C-terminal amide; synthetic construct; SITE 2: note = 2-Aminoisobutyric Acid; SITE 6: note = alpha-methyl-2-fluoro-L-phenylalanine; SITE 10: note = 3-(4-Pyridyl)-L-alanine; SITE 11: note = alpha-methyl-L-serine; SITE 13: note = alpha-methyl-leucine; SITE 16: note = L-ornithine; SITE 17: note = Lysine is chemically mo
B5: Example 1175 (peptide)
chain: B1 chain with A35E
modifications: Aib, αMe residues, 4Pal, Orn, Me4Pal; acylated K; amide; synthetic construct; SITE 2: note = 2-Aminoisobutyric Acid; SITE 6: note = alpha-methyl-L-phenylalanine; SITE 10: note = 3-(4-Pyridyl)-L-alanine; SITE 11: note = alpha-methyl-L-serine; SITE 13: note = alpha-methyl-leucine; SITE 16: note = L-ornithine; SITE 17: note = Lysine is chemically modified th
B6: Example 1169 (peptide)
chain: B1 chain with A35E
modifications: non-natural residues; acylated Lys C18 diacid; C-term amide; synthetic construct; SITE 2: note = 2-Aminoisobutyric Acid; SITE 6: note = alpha-methyl-L-phenylalanine; SITE 10: note = 3-(4-Pyridyl)-L-alanine; SITE 11: note = alpha-methyl-L-serine; SITE 13: note = alpha-methyl-leucine; SITE 16: note = L-ornithine; SITE 17: note = Lysine is chemically modified th
B7: Example 1184 (peptide)
chain: B1 chain with X6F, I12Q, E21Q, G29X, A35E
modifications: non-natural residues; Lys acylated with γGlu-C18 diacid; C-terminal amide; synthetic construct; SITE 2: note = 2-Aminoisobutyric Acid; SITE 10: note = 3-(4-Pyridyl)-L-alanine; SITE 11: note = alpha-methyl-L-serine; SITE 13: note = alpha-methyl-leucine; SITE 16: note = L-ornithine; SITE 17: note = Lysine is chemically modified through conjugation of the epsilon-amino group
B8: Example 1174 (peptide)
chain: B1 chain
modifications: non-natural residues (Aib, αMeF, 4Pal, Orn, Me4Pal); lipidated Lys; C-amide; synthetic construct; SITE 2: note = 2-Aminoisobutyric Acid; SITE 6: note = alpha-methyl-L-phenylalanine; SITE 10: note = 3-(4-Pyridyl)-L-alanine; SITE 11: note = alpha-methyl-L-serine; SITE 13: note = alpha-methyl-leucine; SITE 16: note = L-ornithine; SITE 17: note = Lysine is chemically modified th
B9: Example 1159 (peptide)
chain: YXQGTXTSDXXIXLDXKAQXEFIEXLVEGGPSSGEPPPEGE
modifications: Aib, αMeF(2F), 4Pal, Me4Pal, Orn; lipidated Lys; C-terminal amide; synthetic construct; SITE 2: note = 2-Aminoisobutyric Acid; SITE 6: note = alpha-methyl-2-fluoro-L-phenylalanine; SITE 10: note = 3-(4-Pyridyl)-L-alanine; SITE 11: note = alpha-methyl-L-serine; SITE 13: note = alpha-methyl-leucine; SITE 16: note = L-ornithine; SITE 17: note = Lysine is chemically mo
B10: Example 1177 (peptide)
chain: B9 chain with V27I, E39S
modifications: non-natural residues; Lys acylated C18 diacid via AEEA-γGlu2; C-term amide; synthetic construct; SITE 2: note = 2-Aminoisobutyric Acid; SITE 6: note = alpha-methyl-2-fluoro-L-phenylalanine; SITE 10: note = 3-(4-Pyridyl)-L-alanine; SITE 11: note = alpha-methyl-L-serine; SITE 13: note = alpha-methyl-leucine; SITE 16: note = L-ornithine; SITE 17: note = Lysine is chemically mo
B11: Example 1170 (peptide)
chain: B9 chain with V27I, E35A, E39S
modifications: non-natural residues; acylated Lys; C-terminal amide; synthetic construct; SITE 2: note = 2-Aminoisobutyric Acid; SITE 6: note = alpha-methyl-L-phenylalanine; SITE 10: note = 3-(4-Pyridyl)-L-alanine; SITE 11: note = alpha-methyl-L-serine; SITE 13: note = alpha-methyl-leucine; SITE 16: note = L-ornithine; SITE 17: note = Lysine is chemically modified th
B12: Example 1176 (peptide)
chain: B9 chain with V27I, E35A, E39S
modifications: non-natural residues; lipidated Lys; C-terminal amide; synthetic construct; SITE 2: note = 2-Aminoisobutyric Acid; SITE 6: note = alpha-methyl-2-fluoro-L-phenylalanine; SITE 10: note = 3-(4-Pyridyl)-L-alanine; SITE 11: note = alpha-methyl-L-serine; SITE 13: note = alpha-methyl-leucine; SITE 16: note = L-ornithine; SITE 17: note = Lysine is chemically mo
B13: Example 1164 (peptide)
chain: B9 chain with V27I, E35A, E39S
modifications: non-natural residues; acylated Lys C18 diacid; C-term amide; synthetic construct; SITE 2: note = 2-Aminoisobutyric Acid; SITE 6: note = alpha-methyl-L-phenylalanine; SITE 10: note = 3-(4-Pyridyl)-L-alanine; SITE 11: note = alpha-methyl-L-serine; SITE 13: note = alpha-methyl-leucine; SITE 16: note = L-ornithine; SITE 17: note = Lysine is chemically modified th

target: hGLP-1R (Homo sapiens, UniProt P43220); test: cell-based or functional assay
Sequence (P43220 24-463): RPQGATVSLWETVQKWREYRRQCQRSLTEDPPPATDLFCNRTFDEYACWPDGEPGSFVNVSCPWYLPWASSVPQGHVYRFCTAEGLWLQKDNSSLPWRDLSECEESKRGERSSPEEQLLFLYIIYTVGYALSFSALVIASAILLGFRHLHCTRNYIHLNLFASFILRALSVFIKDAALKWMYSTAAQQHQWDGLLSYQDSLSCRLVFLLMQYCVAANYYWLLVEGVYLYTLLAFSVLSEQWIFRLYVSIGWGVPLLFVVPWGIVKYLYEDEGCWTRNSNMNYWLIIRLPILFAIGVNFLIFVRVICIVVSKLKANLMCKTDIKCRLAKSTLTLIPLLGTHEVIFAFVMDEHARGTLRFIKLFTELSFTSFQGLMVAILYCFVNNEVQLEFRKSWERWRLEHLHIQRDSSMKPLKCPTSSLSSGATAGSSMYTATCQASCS

Binder | Relative cAMP EC50 | cAMP Rel EC50 (in the presence of 1% HSA)
B1 | 0.422 nM | 65.4 nM
B2 | 0.664 nM | 48.2 nM
B3 | 0.762 nM | 66.1 nM
B4 | 0.445 nM | 35.6 nM
B5 | 0.572 nM | 60.7 nM
B6 | 0.613 nM | 80 nM
B7 | 1.18 nM | 179 nM
B8 | 0.454 nM | 60.2 nM
B9 | 0.45 nM | 64.1 nM
B10 | 0.681 nM | 43.6 nM
B11 | 0.395 nM | 50.2 nM
B12 |  | 43.8 nM
B13 | 0.495 nM | 63.5 nM

target: T1, human GIP receptor (human); test: cell-based or functional assay

Binder | Relative cAMP EC50 | cAMP Rel EC50 (in the presence of 1% HSA)
B1 | 0.00839 nM | 0.999 nM
B2 | 0.0115 nM | 0.666 nM
B3 | 0.0266 nM | 2.31 nM
B4 | 0.00602 nM | 0.341 nM
B5 | 0.00962 nM | 0.768 nM
B6 | 0.011 nM | 1.18 nM
B7 | 0.071 nM | 8.39 nM
B8 | 0.00896 nM | 0.707 nM
B9 | 0.0118 nM | 1.29 nM
B10 | 0.0114 nM | 0.544 nM
B11 | 0.00783 nM | 0.663 nM
B12 |  | 0.462 nM
B13 | 0.0104 nM | 1.17 nM

target: human glucagon receptor (human) (UniProt P47871); test: cell-based or functional assay
Sequence (P47871 26-477): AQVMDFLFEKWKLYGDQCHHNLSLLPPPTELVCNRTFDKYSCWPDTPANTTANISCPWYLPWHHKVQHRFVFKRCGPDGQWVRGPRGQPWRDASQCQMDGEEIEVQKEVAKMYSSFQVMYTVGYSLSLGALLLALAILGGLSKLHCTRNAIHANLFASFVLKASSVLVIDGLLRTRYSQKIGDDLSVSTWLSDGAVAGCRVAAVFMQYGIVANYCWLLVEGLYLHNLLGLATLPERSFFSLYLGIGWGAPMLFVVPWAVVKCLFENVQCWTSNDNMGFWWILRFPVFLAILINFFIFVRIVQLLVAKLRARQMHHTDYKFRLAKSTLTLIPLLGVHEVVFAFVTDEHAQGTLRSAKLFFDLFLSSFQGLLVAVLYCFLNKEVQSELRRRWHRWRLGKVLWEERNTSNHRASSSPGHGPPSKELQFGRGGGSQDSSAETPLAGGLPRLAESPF

Binder | Relative cAMP EC50 | cAMP Rel EC50 (in the presence of 1% HSA)
B1 | 2.63 nM | 364 nM
B2 | 3.34 nM | 203 nM
B3 | 1.64 nM | 206 nM
B4 | 3.16 nM | 205 nM
B5 | 2.08 nM | 282 nM
B6 | 2.43 nM | 304 nM
B7 | 1.5 nM | 295 nM
B8 | 2.58 nM | 347 nM
B9 | 1.86 nM | 238 nM
B10 | 4.23 nM | 156 nM
B11 | 2.43 nM | 249 nM
B12 |  | 229 nM
B13 | 2.83 nM | 359 nM
